Assay results: patent US20200199241A1 (Chugai, published 2020)

B1: IgG1-F454 (antibody)
heavy: QVQLQESGPGLVKPSETLSLTCAVSGHSISHDHAWSWVRQPPGEGLEWIGFISYSGITNYNPSLQGRVTISRDNSKNTLYLQMNSLRAEDTAVYYCARSLARTTAMDYWGEGTLVTVSSASTKGPSVFPLAPSSKSTSGGTAALGCLVKDYFPEPVTVSWNSGALTSGVHTFPAVLQSSGLYSLSSVVTVPSSSLGTQTYICNVNHKPSNTKVDKKVEPKSCDKTHTCPPCPAPELLGGPSVFLFPPKPKDTLMISRTIEVTCVVVDVSHEDPEVKFNWYVDGVEVHNAKTKPREEQYNSTYRVVSVLAVLHQDWLNGKEYKCKVSNKALPAPIEKTISKAKGQPREPQVYTLPPSRDELTKNQVSLTCLVKGFYPSDIAVEWESNGQPENNYKTTPPVLDSDGSFFLYSKLTVDKSRWQQGNVFSCSVLHEALHYHYTQKSLSLSP
light: not shown
notes: EU numbering; copies: 2 + 2
B2: IgG1-F464 (antibody)
heavy: QVQLQESGPGLVKPSETLSLTCAVSGHSISHDHAWSWVRQPPGEGLEWIGFISYSGITNYNPSLQGRVTISRDNSKNTLYLQMNSLRAEDTAVYYCARSLARTTAMDYWGEGTLVTVSSASTKGPSVFPLAPSSKSTSGGTAALGCLVKDYFPEPVTVSWNSGALTSGVHTFPAVLQSSGLYSLSSVVTVPSSSLGTQTYICNVNHKPSNTKVDKKVEPKSCDKTHTCPPCPAPELLGGPSVFLFPPKPKDTLMISRTAEVTCVVVDVSHEDPEVKFNWYVDGVEVHNAKTKPREEQYNSTYRVVSVLQPLHQDWLNGKEYKCKVSNKALPAPIEKTISKAKGQPREPQVYTLPPSRDELTKNQVSLTCLVKGFYPSDIAVEWESNGQPENNYKTTPPVLDSDGSFFLYSKLTVDKSRWQQGNVFSCSVLHEALHYHYTQKSLSLSP
light: not shown
notes: EU numbering; copies: 2 + 2
B3: IgG1-F455 (antibody)
heavy: QVQLQESGPGLVKPSETLSLTCAVSGHSISHDHAWSWVRQPPGEGLEWIGFISYSGITNYNPSLQGRVTISRDNSKNTLYLQMNSLRAEDTAVYYCARSLARTTAMDYWGEGTLVTVSSASTKGPSVFPLAPSSKSTSGGTAALGCLVKDYFPEPVTVSWNSGALTSGVHTFPAVLQSSGLYSLSSVVTVPSSSLGTQTYICNVNHKPSNTKVDKKVEPKSCDKTHTCPPCPAPELLGGPSVFLFPPKPKDTLMISRTVEVTCVVVDVSHEDPEVKFNWYVDGVEVHNAKTKPREEQYNSTYRVVSVLQVLHQDWLNGKEYKCKVSNKALPAPIEKTISKAKGQPREPQVYTLPPSRDELTKNQVSLTCLVKGFYPSDIAVEWESNGQPENNYKTTPPVLDSDGSFFLYSKLTVDKSRWQQGNVFSCSVYHEALHYHYTQKSLSLSP
light: not shown
notes: EU numbering; copies: 2 + 2
B4: IgG1-F456 (antibody)
heavy: QVQLQESGPGLVKPSETLSLTCAVSGHSISHDHAWSWVRQPPGEGLEWIGFISYSGITNYNPSLQGRVTISRDNSKNTLYLQMNSLRAEDTAVYYCARSLARTTAMDYWGEGTLVTVSSASTKGPSVFPLAPSSKSTSGGTAALGCLVKDYFPEPVTVSWNSGALTSGVHTFPAVLQSSGLYSLSSVVTVPSSSLGTQTYICNVNHKPSNTKVDKKVEPKSCDKTHTCPPCPAPELLGGPSVFLFPPKPKDTLMISRTVEVTCVVVDVSHEDPEVKFNWYVDGVEVHNAKTKPREEQYNSTYRVVSVLQVLHQDWLNGKEYKCKVSNKALPAPIEKTISKAKGQPREPQVYTLPPSRDELTKNQVSLTCLVKGFYPSDIAVEWESNGQPENNYKTTPPVLDSDGSFFLYSKLTVDKSRWQQGNVFSCSVFHEALHYHYTQKSLSLSP
light: not shown
notes: EU numbering; copies: 2 + 2
B5: IgG1-F460 (antibody)
heavy: QVQLQESGPGLVKPSETLSLTCAVSGHSISHDHAWSWVRQPPGEGLEWIGFISYSGITNYNPSLQGRVTISRDNSKNTLYLQMNSLRAEDTAVYYCARSLARTTAMDYWGEGTLVTVSSASTKGPSVFPLAPSSKSTSGGTAALGCLVKDYFPEPVTVSWNSGALTSGVHTFPAVLQSSGLYSLSSVVTVPSSSLGTQTYICNVNHKPSNTKVDKKVEPKSCDKTHTCPPCPAPELLGGPSVFLFPPKPKDTLMISRTVEVTCVVVDVSHEDPEVKFNWYVDGVEVHNAKTKPREEQYNSTYRVVSVLAPLHQDWLNGKEYKCKVSGKALPAPIEKTISKAKGQPREPQVYTLPPSRDELTKNQVSLTCLVKGFYPSDIAVEWESNGQPENNYKTTPPVLDSDGSFFLYSKLTVDKSRWQQGNVFSCSVLHEALHYHYTQKSLSLSP
light: not shown
notes: EU numbering; copies: 2 + 2
B6: IgG1-F459 (antibody)
heavy: QVQLQESGPGLVKPSETLSLTCAVSGHSISHDHAWSWVRQPPGEGLEWIGFISYSGITNYNPSLQGRVTISRDNSKNTLYLQMNSLRAEDTAVYYCARSLARTTAMDYWGEGTLVTVSSASTKGPSVFPLAPSSKSTSGGTAALGCLVKDYFPEPVTVSWNSGALTSGVHTFPAVLQSSGLYSLSSVVTVPSSSLGTQTYICNVNHKPSNTKVDKKVEPKSCDKTHTCPPCPAPELLGGPSVFLFPPKPKDTLMISRTVEVTCVVVDVSHEDPEVKFNWYVDGVEVHNAKTKPREEQYNSTYRVVSVLQPLHADWLNGKEYKCKVSGKALPAPIEKTISKAKGQPREPQVYTLPPSRDELTKNQVSLTCLVKGFYPSDIAVEWESNGQPENNYKTTPPVLDSDGSFFLYSKLTVDKSRWQQGNVFSCSVLHEALHYHYTQKSLSLSP
light: not shown
notes: EU numbering; copies: 2 + 2
B7: IgG1-F458 (antibody)
heavy: QVQLQESGPGLVKPSETLSLTCAVSGHSISHDHAWSWVRQPPGEGLEWIGFISYSGITNYNPSLQGRVTISRDNSKNTLYLQMNSLRAEDTAVYYCARSLARTTAMDYWGEGTLVTVSSASTKGPSVFPLAPSSKSTSGGTAALGCLVKDYFPEPVTVSWNSGALTSGVHTFPAVLQSSGLYSLSSVVTVPSSSLGTQTYICNVNHKPSNTKVDKKVEPKSCDKTHTCPPCPAPELLGGPSVFLFPPKPKDTLMISRTVEVTCVVVDVSHEDPEVKFNWYVDGVEVHNAKTKPREEQYNSTYRVVSVLQPLHQDWLNGKEYKCKVSGKALPAPIEKTISKAKGQPREPQVYTLPPSRDELTKNQVSLTCLVKGFYPSDIAVEWESNGQPENNYKTTPPVLDSDGSFFLYSKLTVDKSRWQQGNVFSCSVLHEALHYHYTQKSLSLSP
light: not shown
notes: EU numbering; copies: 2 + 2
B8: IgG1-F457 (antibody)
heavy: QVQLQESGPGLVKPSETLSLTCAVSGHSISHDHAWSWVRQPPGEGLEWIGFISYSGITNYNPSLQGRVTISRDNSKNTLYLQMNSLRAEDTAVYYCARSLARTTAMDYWGEGTLVTVSSASTKGPSVFPLAPSSKSTSGGTAALGCLVKDYFPEPVTVSWNSGALTSGVHTFPAVLQSSGLYSLSSVVTVPSSSLGTQTYICNVNHKPSNTKVDKKVEPKSCDKTHTCPPCPAPELLGGPKVFLFPPKPKDTLMISRTVEVTCVVVDVSHEDPEVKFNWYVDGVEVHNAKTKPREEQYNSTYRVVSVLTPLHQDWLNGKEYKCKVSNKALPAPIEKTISKAKGQPREPQVYTLPPSRDELTKNQVSLTCLVKGFYPSDIAVEWESNGQPENNYKTTPPVLDSDGSFFLYSKLTVDKSRWQQGNVFSCSVLHEALHYHYTQKSLSLSP
light: not shown
notes: EU numbering; copies: 2 + 2
B9: IgG1-F463 (antibody)
heavy: QVQLQESGPGLVKPSETLSLTCAVSGHSISHDHAWSWVRQPPGEGLEWIGFISYSGITNYNPSLQGRVTISRDNSKNTLYLQMNSLRAEDTAVYYCARSLARTTAMDYWGEGTLVTVSSASTKGPSVFPLAPSSKSTSGGTAALGCLVKDYFPEPVTVSWNSGALTSGVHTFPAVLQSSGLYSLSSVVTVPSSSLGTQTYICNVNHKPSNTKVDKKVEPKSCDKTHTCPPCPAPELLGGPSVFLFPPKPKDTLMISRTAEVTCVVVDVSHEDPEVKFNWYVDGVEVHNAKTKPREEQYNSTYRVVSVLAPLHQDWLNGKEYKCKVSNKALPAPIEKTISKAKGQPREPQVYTLPPSRDELTKNQVSLTCLVKGFYPSDIAVEWESNGQPENNYKTTPPVLDSDGSFFLYSKLTVDKSRWQQGNVFSCSVLHEALHYHYTQKSLSLSP
light: not shown
notes: EU numbering; copies: 2 + 2

Each binder was assayed against T1, human FcRn (soluble human FcRn complexed with β2-microglobulin) (human, UniProt P61769 21-119, limits assumed) (assay: SPR, pH 7.0;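 also: antibodies captured on a Protein L sensor chip with human FcRn injected as analyte, KD calculated from fitted association and dissociation rate constants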).
T1 construct: also called hFcRn
T1 sequence (chain, as listed by the source limits assumed, chain 1 of 2): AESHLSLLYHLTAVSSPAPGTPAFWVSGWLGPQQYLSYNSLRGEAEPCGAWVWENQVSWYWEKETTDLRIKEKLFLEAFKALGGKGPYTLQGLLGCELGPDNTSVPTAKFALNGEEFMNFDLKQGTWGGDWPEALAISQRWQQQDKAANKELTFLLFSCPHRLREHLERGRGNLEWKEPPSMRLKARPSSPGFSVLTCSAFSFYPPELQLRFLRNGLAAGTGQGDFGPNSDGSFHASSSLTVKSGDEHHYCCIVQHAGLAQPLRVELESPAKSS
T1 sequence (P61769 21-119 limits assumed, chain 2 of 2): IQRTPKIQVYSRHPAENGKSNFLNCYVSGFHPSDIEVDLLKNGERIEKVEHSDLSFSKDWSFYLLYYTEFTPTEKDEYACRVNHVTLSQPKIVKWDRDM
B1 was tested, and the Kd was 96 nM. B2 showed a Kd of 55 nM. Work on B3 yielded a Kd of 27 nM. Binder B4 has a Kd of 34 nM. In the case of B5, the Kd is reported as 47 nM. Binder B6 has a Kd of 13 nM. B7 gave a Kd of 15 nM. B8 gave a Kd of 40 nM. B9 was tested, and the Kd was 130 nM.
